In patent publication US20260356955 (published 2026):
Like-named read-outs stand apart in the source and are kept apart here.

T1: cynomolgus KLRB1 ECD (cynomolgus)
T1 chain: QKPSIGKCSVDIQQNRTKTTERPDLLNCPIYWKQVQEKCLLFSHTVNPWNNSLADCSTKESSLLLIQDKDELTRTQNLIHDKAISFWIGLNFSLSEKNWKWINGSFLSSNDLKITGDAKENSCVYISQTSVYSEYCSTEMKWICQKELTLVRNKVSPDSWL

T2: cynomolgus KLRB1 on CHO-K1 (cynomolgus)
T2 chain: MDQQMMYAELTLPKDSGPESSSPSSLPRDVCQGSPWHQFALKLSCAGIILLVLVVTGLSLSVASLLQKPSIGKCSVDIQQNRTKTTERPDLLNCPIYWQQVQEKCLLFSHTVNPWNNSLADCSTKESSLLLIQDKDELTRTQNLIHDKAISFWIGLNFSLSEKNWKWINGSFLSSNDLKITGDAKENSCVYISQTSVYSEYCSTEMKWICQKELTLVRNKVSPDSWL


Columns and labels:
cynomolgus KLRB1 ECD [1] = target: T1, cynomolgus KLRB1 ECD; assay: SPR
human KLRB1 on CHO-K1 [2] = target: human KLRB1 on CHO-K1 (human); assay: competition, CLEC2D, FACS
cynomolgus KLRB1 ECD [3] = target: T1, cynomolgus KLRB1 ECD; assay: ELISA
human KLRB1 on CHO-K1 [4] = target: human KLRB1 on CHO-K1 (human); assay: FACS
human KLRB1 ECD [5] = target: human KLRB1 ECD (human); assay: ELISA
[6] = target: T2, cynomolgus KLRB1 on CHO-K1; assay: FACS
cynomolgus KLRB1 ECD [7] = target: T1, cynomolgus KLRB1 ECD; assay: ELISA
human KLRB1 on CHO-K1 [8] = target: human KLRB1 on CHO-K1 (human); assay: competition, CLEC2D, FACS; remark: listed apart in the source
[9] = target: T2, cynomolgus KLRB1 on CHO-K1; assay: FACS
human KLRB1 ECD [10] = target: human KLRB1 ECD (human); assay: ELISA; remark: listed apart in the source
human KLRB1 ECD [11] = target: human KLRB1 ECD (human); assay: SPR
human KLRB1 on CHO-K1 [12] = target: human KLRB1 on CHO-K1 (human); assay: FACS; remark: listed apart in the source
human KLRB1 on CHO-K1 [13] = target: human KLRB1 on CHO-K1 (human); assay: FACS; remark: listed apart in the source
human KLRB1 ECD [14] = target: human KLRB1 ECD (human); assay: ELISA; remark: listed apart in the source
[15] = target: T2, cynomolgus KLRB1 on CHO-K1; assay: FACS
cynomolgus KLRB1 ECD [16] = target: T1, cynomolgus KLRB1 ECD; assay: ELISA
human KLRB1 ECD [17] = target: human KLRB1 ECD (human); assay: SPR; remark: listed apart in the source

human KLRB1 ECD (human), sequence (chain, as listed by the source): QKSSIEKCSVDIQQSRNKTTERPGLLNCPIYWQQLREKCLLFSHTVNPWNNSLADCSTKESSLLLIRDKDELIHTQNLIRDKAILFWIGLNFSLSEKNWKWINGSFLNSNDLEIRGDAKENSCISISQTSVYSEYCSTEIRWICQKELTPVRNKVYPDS
human KLRB1 on CHO-K1 (human), sequence (chain, as listed by the source): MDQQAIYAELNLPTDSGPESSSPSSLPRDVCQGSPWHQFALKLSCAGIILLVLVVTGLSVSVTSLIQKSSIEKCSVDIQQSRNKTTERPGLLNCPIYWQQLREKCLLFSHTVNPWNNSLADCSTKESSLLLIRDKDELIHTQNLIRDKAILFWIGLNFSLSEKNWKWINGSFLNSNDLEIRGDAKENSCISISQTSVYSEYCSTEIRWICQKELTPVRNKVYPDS

Kd (cynomolgus KLRB1 ECD [1]) [nM] | IC50 (human KLRB1 on CHO-K1 [2]) [nM] | EC50 (cynomolgus KLRB1 ECD [3]) [nM] | EC50 (human KLRB1 on CHO-K1 [4]) [nM] | EC50 (human KLRB1 ECD [5]) [nM] | EC50 [6] [nM] | EC50 (cynomolgus KLRB1 ECD [7]) [nM] | IC50 (human KLRB1 on CHO-K1 [8]) [nM] | EC50 [9] [nM] | EC50 (human KLRB1 ECD [10]) [nM] | Kd (human KLRB1 ECD [11]) [nM] | EC50 (human KLRB1 on CHO-K1 [12]) [nM] | EC50 (human KLRB1 on CHO-K1 [13]) [nM] | EC50 (human KLRB1 ECD [14]) [nM] | binding result [15] | binding result (cynomolgus KLRB1 ECD [16]) | Kd (human KLRB1 ECD [17]) [nM] | Binder
1.94 | 3.61 | 0.01 | 1.6 | 0.016 | 14.9 | 0.024 | 1.97 | ~1.77 | 0.0238 | 0.639 | 3.01 |  |  |  |  |  | Hu47A5H2-11 (antibody, V domains shown) VH: QVQLVQSGAEVKKPGASVKVSCKASGYSFTGYWMHWVRQAPGQGLEWMGMIHPSDSETRLNQKFKDRVTMTVDKSTSTVYMELSSLRSEDTAVYYCASEGLRRGSFAYWGQGTLVTVSS VL: DIVLTQSPDSLAVSLGERATINCRASESVDNYGMTFMSWFQQKPGQPPKLLIYAASNQGSGVPDRFSGSGSGTDFTLTISSLQAEDVAVYYCQQSKEVPYTFGQGTKLEIK
 |  |  |  | 0.033 |  |  |  |  |  |  | 6.81 | 5.45 | 0.0201 | no binding | no binding | 0.693 | Hu50A8F2-04 (antibody, V domains shown) VH: QVQLVQSGAEVKKPGASVKVSCKASGYTFIDYYINWVRQAPGQGLEWMGWIFPGSGHTKYNENFKGRVTMTRDTSTSTVYMELSSLRSEDTAVYYCARGDRSALGYFDYWGQGTTVTVSS VL: DIQLTQSPSSLSASVGDRVTITCTASSSVSSTYLHWYQQKPGKSPKLLIYSTSNLASGVPSRFSGSGSGTDYTLTISSLQPEDAATYYCHQYHRSPLTFGQGTKLEIK
